Assay results from doi:10.1101/2025.01.14.632894 (bioRxiv, 2025).

What was measured:
[1] = molecular target: the molecule itself; test: mass photometry
[2] = molecular target: the molecule itself; test: SAXS

Row | Protein | stoichiometry N [1] | binding result [2]
1 | CCDC6-RET fusion product (CCDC6 residues 1-101 fused to RET residues 713-1072), wild type, apo (un-phosphorylated) state (enzyme, human, UniProt Q16204 1-101, looked up, activation loop Tyr 900 and c-terminal Ser 1034 showed high levels of phosphorylation in the basal state) MADSASESDTDGAGGNSSSSAAMQSSCSSTSGGGGGGGGGGGGGKSGGIVISPFRLEELTNRLASLQQENKVLKIELETYKLKCKALQEENRDLRKASVTIEDPKWEFPRKNLVLGKTLGEGEFGKVVKATAFHLKGRAGYTTVAVKMLKENASPSELRDLLSEFNVLKQVNHPHVIKLYGACSQDGPLLLIVEYAKYGSLRGFLRESRKVGPGYLGSGGSRNSSSLDHPDERALTMGDLISFAWQISQGMQYLAEMKLVHRDLAARNILVAEGRKMKISDFGLSRDVYEEDSYVKRSQGRIPVKWMAIESLFDHIYTTQSDVWSFGVLLWEIVTLGGNPYPGIPPERLFNLLKTGHRMERPDNCSEEMYRLMLQCWKQEPDKRPVFADISKDLEKMMVKRRDYLDLAASTPSDSLIYDDGLSEEETPLVDCNNAPLPRALPSTWIENKLYGRISHAFTRF | 2 | –
2 | CCDC6-RET lacking the c-terminal segment of RET (CCDC6 1-101 fused to RET aa 713-1013) (enzyme, human, UniProt Q16204 1-101, looked up) MADSASESDTDGAGGNSSSSAAMQSSCSSTSGGGGGGGGGGGGGKSGGIVISPFRLEELTNRLASLQQENKVLKIELETYKLKCKALQEENRDLRKASVTIEDPKWEFPRKNLVLGKTLGEGEFGKVVKATAFHLKGRAGYTTVAVKMLKENASPSELRDLLSEFNVLKQVNHPHVIKLYGACSQDGPLLLIVEYAKYGSLRGFLRESRKVGPGYLGSGGSRNSSSLDHPDERALTMGDLISFAWQISQGMQYLAEMKLVHRDLAARNILVAEGRKMKISDFGLSRDVYEEDSYVKRSQGRIPVKWMAIESLFDHIYTTQSDVWSFGVLLWEIVTLGGNPYPGIPPERLFNLLKTGHRMERPDNCSEEMYRLMLQCWKQEPDKRPVFADISKDLEKMMVKRR | – | binds
